Test results published in the DeepSol protein solubility set.

Assay: soluble on expression in E. coli; label from the status in PepcDB or PDB records
In the case of “MTESITRDSMQYDVVIVGAGPSGLSAAIKLKQLAEQNGREISVCVVEKGSEVGAHSLAGAVIDPIALNELISDWKEKGAPLTRTVTQDKVLFLTEKKAFNLPITPNFDNHGNYIVSLGEVVRWLAEQAENMGVEIYPGFAAAEVLYHEDGSVKGIATGNMGIGKDGEPTDSFQPGMELWAQQTLFAEGCRGSLSKQIIERFQLDQNSQPQTYGLGIKEVWEVPSEQHQPGLVVHSAGWPLDSKTYGGAFVYHFDDNKVAVGFVVGLDYQNPYLSPFEEFQRFKTHPEIRKTFEGGRRIAYGARSLIEGGLQSLPKLSFKGGILVGDAAGFLNMPRIKGIHTAMKSAMLAAEAVFPLLENLEEVEGFDSGKEAADYQQRFEQSWLYQELYAARNVRPSFKWGVYLGSIYTGIDQMIFRGKAPWTLKHHGKDNEQLKKAAACKPIDYPKPDGVLTFDRLSSVFLANLAHEENQPDHLVLNNPQTMIDVNYKEYASPETRYCPAGVYEIVEENGNPRLQINAANCVHCKTCDIKDPTQNITWICPEGASGPNYGGM”, the “soluble on expression in E. coli” value was “not soluble”. For “MKIRSPIVSVLGHVDHGKTTLLDHIRGSAVASREAGGITQHIGATEIPMDVIEGICGDFLKKFSIRETLPGLFFIDTPGHEAFTTLRKRGGALADLAILIVDINEGFKPQTQEALNILRMYRTPFVVAANKIDRIHGWRVHEGRPFMETFSKQDIQVQQKLDTKVYELVGKLHEEGFESERFDRVTDFASQVSIIPISAITGEGIPELLTMLMGLAQQYLREQLKIEEDSPARGTILEVKEETGLGMTIDAVIYDGILRKDDTIAMMTSKDVISTRIRSLLKPRPLEEMRESRKKFQKVDEVVAAAGIKIVAPGIDDVMAGSPLRVVTDPEKVREEILSEIEDIKIDTDEAGVVVKADTLGSLEAVVKILRDMYVPIKVADIGDVSRRDVVNAGIALQEDRVYGAIIAFNVKVIPSAAQELKNSDIKLFQGNVIYRLMEEYEEWVRGIEEEKKKKWMEAIIKPASIRLIPKLVFRQSKPAIGGVEVLTGVIRQGYPLMNDDGETVGTVESMQDKGENLKSASRGQKVAMAIKDAVYGKTIHEGDTLYVDIPENHYHILKEQLSGDLTDEELDLMDKIAEIKRKKNPDWGMKAPF”, the “soluble on expression in E. coli” value was “soluble”. In the case of “MKNNNLSDARKEKGLTQQELAEKLQVRKSTVSNWETGYSSPGISTAIQTAIILDKDVSFLFGNKVQETHTRVRD”, the “soluble on expression in E. coli” value was “not soluble”. For “MDTSKIVGEKIKALREDKSISIEELAQRSGLAIEQIERIENNIDIPSLAPLIKIARVLGVRLGTFLDDQDEIGPVVCRKKEAKDAISFSNNAIHSRKHMEYHSLSKSKADRHMEPFIIDVMPTEDSDFVLSSHEGEEFIMVMEGVMEISYGKNTYLLEEGDSIYYDSIVPHHVHAYEGQAAKILAVVYTPI”, the “soluble on expression in E. coli” value was “not soluble”. With “AEPQPPSGGLTDEAALSCCSDADPSTKDFLLQETMLRVKDPKKSLDFYTRVLGMTLIQKCDFPIMKFSLYFLAYEDKNDIPKEKDEKIAWALSRKATLELTHNWGTEDDETQSYHNGNSDPRGFGHIGIAVPDVYSACKRFEELGVKFVKKPDDGKMKGLAFIQDPDGYWIQILNPNKMATLM” the “soluble on expression in E. coli” value was “soluble”. With “MNENDGKNSAEKHNNSQDEGSIQPDKTQLDDVADDAEKKSEKSSNCMIWSQNVLKKAKISNMTREFRNNKEYKPNVTTSISEKMMDKNRYRHIFCGDDNRVVLKERDPSNDYIHASWMVMPDGFQFISTQGPIKNTIADFWHMVYTEKCHVIVMLCQYIEEDQEKCQRYFSDTSEKEYGDYRVKVVEKTVELWNPVKVTGIQVQKKNCPTKHMVYHYFYYDWHDQVAPLDPAPMIKMYKAVLNKSSSKPIVVHCSAGVGRTSTFVGIYLSQIMIRENSSVDMVEILKRLRTMRLGAVQSQLQYVYLVVLMIELFIDDKIIKRNANYESLLKKYADVTRKVTAAIMEEEEKRRQRKKREEEKEKEQEKESPATKEEKKKENGLKTNRQRDNREAPSKPPRKNPEELARSKLQGPRKLTLKNRDGNAEEPTAKDNEERSTAEDKSKNRQKSVYVKMPLSSKEKGSKHERAKQGARKNAARKAKKKPSVTGNY” the “soluble on expression in E. coli” value was “not soluble”. For “SADSKEGVLPLTAASTAPISFGFTRTSARRRLADSGDGAGPSPEEKDFLKTVEGRELQSVKPQEAPKELVIPLIQNGHRRQPPARPPGPSTDTGALADGVVSQAVKELIAESKKSLEERENAGVDPTLAIPMIQKGCTPSGEGADSEPRAETVPEEANYEAVPVEAYGLAMLRGMGWKPGEGIGRTFNQVVKPRVNSLRPKGLGLGANLTEAQALTPTGPSRMPRPDEEQEKDKEDQPQGLVPGGAVVVLSGPHRGLYGKVEGLDPDNVRAMVRLAVGSRVVTVSEYYLRPVSQQEFDKNTLDLRQQNGTASSRKTLWNQELYIQQDNSERKRKHLPDRQDGPAAKSEKAAPRSQHWLHRDLRVRFVDNMYKGGQYYNTKMIIEDVLSPDTCVCRTDEGRVLEGLREDMLETLVPKAEGDRVMVVLGPQTGRVGHLLSRDRARSRALVQLPRENQVVELHYDAICQYMGPSDTDDD”, the “soluble on expression in E. coli” value was “soluble”. With “IGNTLHNYSVLADSKSVLLGVMSKNIQVGSFAYRYLCRTSSRMNLNHLQTVDGPIGRCYTLISQDGERTFAINEGHMNQLLPESIPEEVFEKASALVVSSYLMRGKEEDPMPKAVQRAIDFAKKHDVPVVLTLGTKYVIEGNAEWWQEYIRENVSVVAMNEEEGAALTGEHDPLAAADKALEWVDLVLCTAGPNGLYMAGYTDEKVKRETTHDILESSIEEFNKFEFSRAMRKEDCVNPMKVYSHIGPYLGGPLEIKNTNGAGDAALSALLHDMAANSFHQKEVPTSEKHEVRCLTYSSLSQICKYANRVSYEVLTQHSPRLSRALPEREDSLEETYWDR” the “soluble on expression in E. coli” value was “not soluble”. In the case of “MGSDKIHHHHHHAAGQPRLVKSLVPDMPSQAPDYFCTWNLQGYVASYKSTELTRAAMTEDYLFGDGLYQNWVDCYPAIRKDLYFVMDDSWDIPKDVNDSPNLYLGCVELSSDRFPSFRGDAVERLKQLSEQIKSKGWKGVGGWICAQKAETHAAIPEEEYWKQRIKAANAAGFDYWKVDWGKEDRNGEWRRKLTAIGKRYAPHLYIEHALRNEFIEFSDVFRTYDVENITAQPITIRRICDLLPYKTVEGAKGIINCEDEPYIAVGLGCAIGVMRHPFAETLPDGAQDFVFPPVGRDIKRRLDEVVRGVRWHRIAEPFAVGYGTFAIDSVKLTDHWILQENETWNKGRTVGADVTADAPARVARNMKLPEVSGAPLSVCPFVLASRYPNGAVAVSTIGRNVGREYVTEKVAVSISVDRWDIPIGLFGYFKEVTMVFPSPLKTGKHTVFAQDLAGENPVDITSNVVIKDNRLIIPGEVISRVGLMNASEGDCSDPGMVIRVM”, the “soluble on expression in E. coli” value was “not soluble”. In the case of “MSLVMKASVDDDDSGWELSMPEKMEKSNTNWVDITQDFEEACRELKLGELLHDKLFGLFEAMSAIEMMDPKMDAGMIGNQVNRKVLNFEQAIKDGTIKIKDLTLPELIGIMDTCFCCLITWLEGHSLAQTVFTCLYIHNPDFIEDPAMKAFALGILKICDIAREKVNKAAVFEEEDFQSMTYGFKMANSVTDLRVTGMLKDVEDDMQRRVKSTRSRQGEERDPEVELEHQQCLAVFSRVKFTRVLLTVLIAFTKKETSAVAEAQKLMVQAADLLSAIHNSLHHGIQAQNDTTKGDHPIMMGFEPLVNQRLLPPTFPRYAKIIKREEMVNYFARLIDRIKTVCEVVNLTNLHCILDFFCEFSEQSPCVLSRSLLQTTFLVDNKKVFGTHLMQDMVKDALRSFVSPPVLSPKCYLYNNHQAKDCIDSFVTHCVRPFCSLIQIHGHNRARQRDKLGHILEEFATLQDEAEKVDAALHTMLLKQEPQRQHLACLGTWVLYHNLRIMIQYLLSGFELELYSMHEYYYIYWYLSEFLYAWLMSTLSRADGSQMAEERIMEEQQKGRSSKKTKKKKKVRPLSREITMSQAYQNMCAGMFKTMVAFDMDGKVREGHHHHHH”, the “soluble on expression in E. coli” value was “not soluble”. With “MGSDKIHHHHHHADDSVKIGFITDMSGLYADIDGQGGLEAIRMAVADFGGKVNGKPITVVYADHQNKADIAASRAREWFDRDGVDMLIGGTNSATGLSMNTVAGEKKKVYISIGAGADTLTNEQCTPYTVHYAYDTTALAKGTGSAVTKQGGKTWYFLTADYAFGKALEKNTADVVKANGGQVLGAVRHPLSASDFSSFLLQAQASKAQILGLANAGGDTINSIKAAKEFGITKTMKLAALLVFIDDIHSLGLETTQGLVLTDSWYWNKDATTRKWAERYFDKMKKMPSSLQAADYSATMTYLNAVKAVGSTDSDKVMAQLKKTKIDDFYAKGYIRQDGSMIHDMYLMQVKTPAESREPWDYYKITATIPGEQAFTTKAETRCALWK” the “soluble on expression in E. coli” value was “not soluble”. In the case of “GSHMTREMRILILGLDGAGKTTILYRLQVGEVVTTIPTIGFNVETVTYKNLKFQVWDLGGLTSIRPYWRCYYSNTDAVIYVVDSCDRDRIGISKSELVAMLEEEELRKAILVVFANKQDMEQAMTSSEMANSLGLPALKDRKWQIFKTSATKGTGLDEAMEWLVETLKSRQ”, the “soluble on expression in E. coli” value was “soluble”. For “SGEKSENCGVPEDLLNGLKVTDTQEAECAGPPVPDPKNQHSQSKLLRDDEAHLQEDQGEEECFHDCSASFEEEPGADKVENKSNEDVNSSELDEEYLIELKKNMSDEEKQKRREESTRLKEEGNEQFKKGDYIEAESSYSRALEMCPSCFQKERSILFSNRAAARMKQDKKEMAINDCSKAIQLNPSYIRAILRRAELYEKTDKLDEALEDYKSILEKDPSIHQAREACMRLPKQIEERNERLKEEMLGKLKDLGNLVLRPFGLSTENFQIKQDSSTGSYSINFVQNPNNNR”, the “soluble on expression in E. coli” value was “soluble”. In the case of “MSQQELFFEVRRNRSHIYLDAEESHSVMELKLMLAGITRDPVNHMELWKLDEDGNKSQLLHDTATLSDAGFSSTNAKAQCPAALGLRLTNAEEHLTISDVSTAPPIPDTMRQEQAPQE”, the “soluble on expression in E. coli” value was “not soluble”. For “MFHVKLTLTTMLDTMNSSAHRPVVVADVDTGIDDALAITYLGYLHRRGLIELRITTSAGNCTAEQAAANSAEIMNSLTLSDVPITPGAPKPRALPLTTTPETHGPTGLGYHTTRATIPQLSNAAAAVDLWKGADYLLVAGPATNVAWAAENAPEVLNAIPHVTFMTGAFHYPGNTTPTAEWNAWVDPHALKEALAHYRGHAVRPTICPLNVTESVLLTPQRLKQWCQRSQEPVLPILSDALRFYFEFHESVGVGYMAQIHDLAAAMVLLNRVPHTTRPGFVDVEADAELTRGTTVVDWDSNYGDHPANAQILTALQSEDVFAEFERVVLEY”, the “soluble on expression in E. coli” value was “not soluble”. In the case of “MHKKADQPFMKEKRGSKLTVRAMPIQSKNLQISGICDVVEFVQDSEGIELSGVSGSYKAFPVEYKRGKPKKGDEDIVQLVAQAMCLEEMLVCRIDKGYLFYNEIKHRVEVPITDALRDKVVQMAKEMHHYYENRHTPKVKTGPFCNNCSLQSICLPKLMNKRSVKRYIEGRLSELEHHHHHH”, the “soluble on expression in E. coli” value was “not soluble”.
